Residue numbers refer to the chain shown, from its start.
How the values were obtained:
human CCR7 [1] = biological target: T1, human CCR7 (Homo sapiens, UniProt P32248); experiment: Gαi signaling, BRET-based cAMP (CAMYEL) assay at CCR7 in CHO cells; format: cell-based; conditions: for boosting of CCL21-induced Gαi signaling: CCL21 + 10 µM peptide, BRET cAMP, n = 3–8
T1 construct: CCR7 contains a 24-residue long signal peptide cleaved of from the mature protein; expressed in transfected cells; host or cells: CHO cells (CHO-K1, CHO suspension WT, GAG-deficient and 5xKO GalNAc-T knockout lines), transient transfection
T1 sequence (P32248 25-378): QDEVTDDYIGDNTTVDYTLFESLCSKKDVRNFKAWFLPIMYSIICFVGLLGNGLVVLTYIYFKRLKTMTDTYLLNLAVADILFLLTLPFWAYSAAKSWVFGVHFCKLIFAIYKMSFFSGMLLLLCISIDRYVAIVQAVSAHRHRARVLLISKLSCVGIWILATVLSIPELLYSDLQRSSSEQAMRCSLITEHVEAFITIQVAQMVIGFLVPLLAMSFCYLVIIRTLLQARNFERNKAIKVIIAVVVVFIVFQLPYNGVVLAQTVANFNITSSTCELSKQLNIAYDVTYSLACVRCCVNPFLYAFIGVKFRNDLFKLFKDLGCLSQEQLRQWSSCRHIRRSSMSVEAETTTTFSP
Protocol: (§1) Human DCs were cultured in X-vivo 15 medium with 2% human AB serum and glutamine. CHO-K1 pgsB-618 ATCC® CRL2241™ [24] and CHO-K1 cells were grown in RPMI with 10% FBS and Penicillin/Streptomycin. HS^−/− (CHO EXTL 2/3 −/−), CS^−/− (CSGALNACT 1/2^−/− CHSY1^−/−), 5xKO (GalNAc-T1, 2, 4, 7 and 10 −/−) and WT CHO suspension cells were grown in suspension in 1:1 of EX-Cell CD CHO fusion media and Balanced CD CHO growth A medium supplemented with 2% glutamine and Penicillin/Streptomycin. Cells were kept in a humidified incubator at 37 °C, 5% CO2.
(§2) For cAMP assays, adherent CHO cells were transfected using lipofectamine while suspension cells were transfected using the FectoPro method. Cells were seeded in a 6-well plate, either 500,000 (adherent cells) or 200,000 (suspension cells) cells/well. The next day the cells were transiently transfected with vectors encoding the human CCR7 and CAMYEL sensor (cAMP sensor using YFP-Epac-RLuc) in a 1:5 ratio using lipofectamine (6 µl/well) or FectoPro (4 µl/well). Lipofectamine transfections were terminated by changing to 2 ml fresh cultivation medium after 5 h, while Fectopro transfection was terminated after 3 h by adding 2.5 ml fresh cultivation medium and 2 µl FectoPro Boost reagent per well. The cells were incubated under standard cultivation conditions overnight. For β-arrestin recruitment assays, cells were transfected with CCR7 and vectors expressing a Renilla luciferase arrestin3 fusion protein and membrane-SH3-citrine protein. The cells were then resuspended in PBS w/glucose and seeded in 96-well white iso plates (~ 25,000 cells/well). Coelenterazine (bioluminescence substrate) was added to a final conc. of 5 µM. After 10 min, cells were stimulated with varying ligand concentrations for a total of 40 min. Forskolin was added to each well 5 min after ligand addition to reach a final conc. of 5 µM. The plates were kept in the dark at all times. Emission signal from Rluc and eYFP was measured using the Envision machine at 530 and 480 nm and the BRET signal determined as the ratio between (eYFP/Rluc).

[2] = test system: human moDCs naturally expressing CCR7; experiment: 3D chemotaxis, time-lapse recording of human moDCs in Collagen I (chemotactic index); format: cell-based; conditions: human moDCs; for boosting of CCL21-induced DC chemotaxis: 10 nM CCL21, peptide 10 µM (0.1–10 µM in the dose series)
Protocol: Buffy coats were obtained from Rigshospitalet Copenhagen, as anonymous material, with written informed consent from the donors. The local ethics committee at Faculty of Health and Medical Sciences at the University of Copenhagen (Research Ethics Committee for Sund and Science, University of Copenhagen) found the project exempt from approval. DCs were prepared from human peripheral blood mononuclear cells (PBMC) isolated from buffy coats by centrifugation on a Lymphoprep gradient as previously described. Briefly, monocytes were isolated by plastic adherence of PBMC. Adhered monocytes were subsequently cultured and differentiated into immature DCs by incubation with IL-4 (250 U/ml) and GM-CSF (1000 U/ml) for 6 days, followed by activation into mature DCs by incubation with IL-6 (1000 U/ml), IL-1β (1000 U/ml), TNF-α (1000 U/ml), and PGE2 (1 µg/ml) for an additional 2 days in the same medium.
as §1
Chemotaxis assays were conducted as previously described. Briefly, mature human moDCs were left to acclimatize in medium for 30 min at room temperature (RT) upon defrosting, before assay start. DCs were seeded in Bovine Collagen I mixture prepared by mixing 10 µl Na2HCO3 (7.5%), 20 µl MEM (10×), 150 µl PureCol and 90 µl DCs dissolved in X-vivo 15 medium (2 × 10^6 cells/ml). After incubation for 45 min in a humidified incubator at 37 °C (5% CO2), the source and sink reservoirs were filled according to the manufacturer’s instructions and chemotaxis was tracked in a time-lapse microscope with a humidified temperature controlled stage incubator for 12 h at a 2 min interval. Cell migration (approximately 20–40 cells per viewing field) was tracked using a commercial tracking program (Autozell) and subsequently analyzed to get a population-based chemotactic index (CI) value (MATLAB). CI is a measure of net translocation distance to the source relative to total distance traveled and was thus calculated as the ratio of the distance traveled in the direction of the gradient over the total distance traveled and therefore is a conservative measure of the directedness of cell migration.

CCR7 = conditions: allosteric antagonist, cytosolic site; cited from earlier work
From the text: In the absence of peptide, CCL19 and CCL21 contact CCR7 in different manners. The interaction of CCL21 depends on residues in the top of TM-3, -4 and -5 that are not important for CCL19 interaction with CCR7. The binding of these two chemokines induce different structural changes in CCR7 to disrupt old and create new hydrogen bonds. CCL21 binding to CCR7 is believed to involve movements within the majority of helical domains (TM2, -3, -4, -5, -6, and -7), whereas the changes induced by CCL19 are restricted to regions of TM3, -5, and -6 [37]. The conformational changes in CCR7 ind ...

human CCR7 [3] = biological target: T1, human CCR7; experiment: β-arrestin recruitment, BRET-based assay at CCR7; format: cell-based; conditions: no peptide, n = 4
Protocol: as §2

[4] = biological target: T2, CCR7^−O (CCR7 T37/38/42A) (Homo sapiens, UniProt P32248, T37A/T38A/T42A); experiment: Gαi signaling, BRET cAMP assay, CCR7 lacking N-terminal O-glycosylation sites; format: cell-based; conditions: no peptide, CCR7^−O vs WT CCR7
T2 construct: CCR7 contains a 24-residue long signal peptide cleaved of from the mature protein; expressed in transfected cells; host or cells: CHO cells, transient transfection
T2 sequence (P32248 25-378 T37A/T38A/T42A): T1 sequence (P32248 25-378) with T13A, T14A, T18A
Protocol: O-glycosylation deficient CCR7 was generated from WT through Quick change PCR using the following primers: […]
as §2

Compound	boosting of CCL21-induced Gαi signaling (human CCR7 [1]; CHO cells)	boosting of CCL21-induced DC chemotaxis [2]	also measured
TP81-97: C-terminally truncated version of TP81-111 (RKDRGASKTGKKGKGSK; UniProt O00585 104-120, looked up, fragment)	reduced signaling via cAMP	blunted chemotaxis boosting ability	
TP81-111: naturally occurring peptide generated upon plasmin cleavage of CCL21 (RKDRGASKTGKKGKGSKGCKRTERSQTPKGP; UniProt O00585 104-134, looked up, fragment)	boosted even more	at least to the same extent as TP71-111	
TP81-102: C-terminally truncated version of TP81-111 (RKDRGASKTGKKGKGSKGCKRT; UniProt O00585 104-125, looked up, fragment)	conserved boosting effects	conserved boosting effects	
Cc1ccc(C(NC2=NS(=O)(=O)N=C2Nc2ccc(C)c(C(=O)N(C)C)c2O)C(C)(C)C)o1 (centres unmarked) [Cmp2105]			competition with CCL19 binding to CCR7 (CCR7): outcompetes CCL19 binding to CCR7
CCL19: endogenous chemokine, CCR7 ligand, from R&D Systems			chemokine signaling in O-glycosylation-deficient 5xKO cells (human CCR7 [1]; CHO 5xKO vs WT, CCL21 alone, CCL19 in absence or presence of C21TP): only slightly impaired; pEC50, Gαi signaling, chemokine alone (human CCR7 [1]; no peptide, CHO cells, forskolin 5 µM, n = 4): 7.94; pEC50, β-arrestin recruitment, chemokine alone (human CCR7 [3]): 7.11; chemotaxis towards chemokine alone ([2]; 10 nM chemokine, no peptide): strong migratory signal; chemokine activity on its own at CCR7^−O [4]: without affecting basal CCR7 activation via CCL19 and CCL21
TP91-111: C21TP reduced N-terminally by 20 aa (KKGKGSKGCKRTERSQTPKGP; UniProt O00585 114-134, looked up, fragment)	retaining boosting ability	retaining boosting ability	

From PMC8558179, “The C-terminal peptide of CCL21 drastically augments CCL21 activity through the dendritic cell lymph node homing receptor CCR7 by interaction with the receptor N-terminus” (Cellular and Molecular Life Sciences: CMLS, 2021)
